Where “and” joins values, the source holds several entries; their conditions need not be identical. Identical values can stand only once.
Assays:
[1] = molecular target: Mos1 transposase (containing the solubilizing mutation T216A), hydrogenated (Drosophila mauritiana); experiment: SAXS + SANS
[2] = molecular target: Mos1 transposase (containing the solubilizing mutation T216A), hydrogenated (Drosophila mauritiana); experiment: […], room temperature, 20 mM Tris pH 7.5, 0.3 M KCl, 1 mM DTT
[3] = molecular target: Mos1 transposase (containing the solubilizing mutation T216A), hydrogenated (Drosophila mauritiana); experiment: SEC-MALS
[4] = molecular target: Mos1 transposase (containing the solubilizing mutation T216A), hydrogenated (Drosophila mauritiana); experiment: SAXS + SANS; remark: listed apart in the source
[5] = molecular target: N130 Mos1 (the N-terminal 130 amino acids of Mos1 transposase, DNA-binding domain) (Drosophila mauritiana); experiment: SEC-MALS
H-Mos1 transposase = molecular target: T1, H-Mos1 transposase (UniProt Q7JQ07 1-345, T216A)
T1 sequence: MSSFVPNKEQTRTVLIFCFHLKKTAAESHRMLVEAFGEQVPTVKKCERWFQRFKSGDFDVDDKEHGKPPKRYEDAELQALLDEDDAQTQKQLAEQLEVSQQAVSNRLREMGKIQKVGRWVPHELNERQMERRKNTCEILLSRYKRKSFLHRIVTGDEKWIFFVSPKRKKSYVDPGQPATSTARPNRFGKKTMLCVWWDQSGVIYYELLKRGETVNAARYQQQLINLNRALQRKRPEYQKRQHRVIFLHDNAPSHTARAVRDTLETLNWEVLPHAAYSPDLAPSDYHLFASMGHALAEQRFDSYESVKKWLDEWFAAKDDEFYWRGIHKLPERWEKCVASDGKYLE

D-Mos1 transposase = molecular target: T2, D-Mos1 transposase (UniProt Q7JQ07 1-345, T216A); experiment: SANS contrast variation
T2 sequence: T1 sequence

“Mos1 transposase (containing the solubilizing mutation T216A), hydrogenated (enzyme)” was tested, and the stoichiometry N [1] was 2, the stoichiometry N [2] was 2 and the stoichiometry N [3] was 2. It also gave a stoichiometry N [4] of 2.

“N130 Mos1 (the N-terminal 130 amino acids of Mos1 transposase, DNA-binding domain) (domain or fragment)” was tested, and the stoichiometry N [5] was 2 and 4.

B1: 50-mer IR DNA (SEC2 duplex) (dsDNA)
DNA 1: TTTAAAAAAAACGACATTTCATACTTGTACACCTGATAGTTTCTATATTC
DNA 2: GAATATAGAAACTATCAGGTGTACAAGTATGAAATGTCGTTTTTTTTAAA
B1: binds (H-Mos1 transposase); binds (D-Mos1 transposase).

From PMC3561948
